{
  "source": "patent US20030186334A1",
  "about": "“KTS-disintegrins” (Temple University - Of the Commonwealth System of Higher …, priority 2001, published 2003)",
  "binders": {"B1": {"name": "synthetic peptide TSLTS (SEQ ID NO: 6) (peptide)", "peptide": "TSLTS", "modifications": "not checked"}},
  "target": "human α1β1 integrin (human), P56199",
  "sequence (P56199 29-1179, chain 1 of 2)": "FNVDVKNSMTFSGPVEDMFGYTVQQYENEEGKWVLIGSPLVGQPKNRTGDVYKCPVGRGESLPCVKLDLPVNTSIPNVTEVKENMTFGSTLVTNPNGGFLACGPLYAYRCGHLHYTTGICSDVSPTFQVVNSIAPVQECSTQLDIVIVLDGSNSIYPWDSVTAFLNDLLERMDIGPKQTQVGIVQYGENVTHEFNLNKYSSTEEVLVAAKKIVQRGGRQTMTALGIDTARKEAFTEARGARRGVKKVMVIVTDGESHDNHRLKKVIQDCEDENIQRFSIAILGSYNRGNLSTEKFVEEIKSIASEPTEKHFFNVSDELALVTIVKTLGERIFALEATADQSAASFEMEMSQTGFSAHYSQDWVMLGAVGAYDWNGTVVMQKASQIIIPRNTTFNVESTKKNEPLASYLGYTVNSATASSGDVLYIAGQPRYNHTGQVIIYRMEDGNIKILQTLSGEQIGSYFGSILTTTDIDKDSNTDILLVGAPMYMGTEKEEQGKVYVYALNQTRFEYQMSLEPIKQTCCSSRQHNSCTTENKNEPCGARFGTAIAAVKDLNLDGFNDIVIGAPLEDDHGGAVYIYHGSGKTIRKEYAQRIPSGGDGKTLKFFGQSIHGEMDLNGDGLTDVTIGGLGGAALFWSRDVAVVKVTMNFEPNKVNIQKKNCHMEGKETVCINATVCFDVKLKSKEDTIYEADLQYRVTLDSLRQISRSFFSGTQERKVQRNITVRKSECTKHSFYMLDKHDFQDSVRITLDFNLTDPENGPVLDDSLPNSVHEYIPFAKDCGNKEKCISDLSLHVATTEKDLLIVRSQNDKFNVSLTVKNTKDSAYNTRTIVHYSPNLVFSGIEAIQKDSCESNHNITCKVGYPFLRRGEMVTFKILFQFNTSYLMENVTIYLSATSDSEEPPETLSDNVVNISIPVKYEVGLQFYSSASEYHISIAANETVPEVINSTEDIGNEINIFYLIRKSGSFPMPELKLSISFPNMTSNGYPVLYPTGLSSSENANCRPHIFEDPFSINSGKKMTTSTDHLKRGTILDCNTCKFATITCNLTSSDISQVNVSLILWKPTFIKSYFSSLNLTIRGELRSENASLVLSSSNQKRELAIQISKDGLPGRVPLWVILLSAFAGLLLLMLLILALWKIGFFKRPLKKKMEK",
  "sequence (P05556 21-798, chain 2 of 2, further chain)": "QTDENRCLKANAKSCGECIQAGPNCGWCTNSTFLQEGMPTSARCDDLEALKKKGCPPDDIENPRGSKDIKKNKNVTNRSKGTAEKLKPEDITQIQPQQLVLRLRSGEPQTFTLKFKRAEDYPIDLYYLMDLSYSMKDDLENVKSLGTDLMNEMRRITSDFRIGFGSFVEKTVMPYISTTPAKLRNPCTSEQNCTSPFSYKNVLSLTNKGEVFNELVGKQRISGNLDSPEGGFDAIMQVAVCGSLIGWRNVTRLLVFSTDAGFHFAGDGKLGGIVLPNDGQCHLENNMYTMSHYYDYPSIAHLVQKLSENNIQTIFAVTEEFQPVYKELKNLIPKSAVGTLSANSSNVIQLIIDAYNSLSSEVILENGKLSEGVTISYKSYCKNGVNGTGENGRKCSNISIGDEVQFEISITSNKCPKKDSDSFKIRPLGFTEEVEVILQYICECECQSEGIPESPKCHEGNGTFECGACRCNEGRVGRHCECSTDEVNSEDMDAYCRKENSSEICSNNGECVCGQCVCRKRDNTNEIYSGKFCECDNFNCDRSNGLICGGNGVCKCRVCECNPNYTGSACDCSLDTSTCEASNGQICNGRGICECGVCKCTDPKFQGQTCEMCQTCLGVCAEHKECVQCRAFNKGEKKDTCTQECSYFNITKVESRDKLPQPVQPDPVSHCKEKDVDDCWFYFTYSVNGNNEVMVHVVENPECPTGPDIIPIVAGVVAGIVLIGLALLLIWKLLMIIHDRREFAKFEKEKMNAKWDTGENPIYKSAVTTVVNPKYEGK",
  "experiment": "inhibition of adhesion of α1K562 cells to immobilised collagen IV",
  "data": [
    {"binder": "B1", "values": [
      {"measurement": "IC50", "result": 3.5, "unit": "mM"}
    ]}
  ]
}
